Data on one variant can be found in IntAct's records for PubMed 16619024.

B1: Translocon at the outer membrane of chloroplasts 64 (Pisum sativum (Garden pea)), Q9MUK5 (parent)
chain: MKSMASPSSQIWVILGLGLAGIYVLTRKLTQAVKEDFGAFLLKLKLLPPPPPAPPKAPHPLSSLNFAISDIFDIEGHVSTFGHPEWARTHEPASSTASAVSALVESGATCIGTTVVDELAYGISGENKHFGTPTNPAVPNRVPGGSSSGAAVAVAANFVDFSLGVDTSGGVRVPAGFCGILGFRPSHGAVSHVGIIPVSTSLDTVGWFAKDPDVLRRVGHILLQAPFVMQRNPRQIIIADDCFQHLNVPLDRTSQVVIKATEKLFGKQVLKHINFEDYISSKVSSLKACSIQKSNGVLKSSSLKLLANVMQSLQRHEFEHTHSEWMSIVKPDLHPAVSAQLHEKFEVSELEIENSKSVRSELRVAVNSLLKDEGVLVIPTVADPPPKLGGKEFLSHDYQSRALSLLSIASISGCCQVTVPLGFFDKNPVSVSLIARHGGDRFLLDTLKTMYTVLQEQADIAAPSKSSKSVVSKEQSAEISKEKGNQAYKDKQWQKAIGFYTEAIKLCGNNATYYSNRAQAYLELGSYLQAEEDCTTAISFDKKNVKAYFRRGTAREMLGYYKEAIDDFKYALVLEPTNKRAASSAERLRKLFQ

The variants in this assay derive from B1. Particulars: with hs704_arath HSP70-4, Q9LHA8.
For MKSMASPSSQIWVILGLGLAGIYVLTRKLTQAVKEDFGAFLLKLKLLPPPPPAPPKAPHPLSSLNFAISDIFDIEGHVSTFGHPEWARTHEPASSTASAVSALVESGATCIGTTVVDELAYGISGENKHFGTPTNPAVPNRVPGGSSSGAAVAVAANFVDFSLGVDTSGGVRVPAGFCGILGFRPSHGAVSHVGIIPVSTSLDTVGWFAKDPDVLRRVGHILLQAPFVMQRNPRQIIIADDCFQHLNVPLDRTSQVVIKATEKLFGKQVLKHINFEDYISSKVSSLKACSIQKSNGVLKSSSLKLLANVMQSLQRHEFEHTHSEWMSIVKPDLHPAVSAQLHEKFEVSELEIENSKSVRSELRVAVNSLLKDEGVLVIPTVADPPPKLGGKEFLSHDYQSRALSLLSIASISGCCQVTVPLGFFDKNPVSVSLIARHGGDRFLLDTLKTMYTVLQEQADIAAPSKSSKSVVSKEQSAEISKEKGNQAYKDKQWQKAIGFYTEAIKLCGNNATYYSNRAQAYLELGSYLQAEEDCTTAISFDKKNVKAYFARGTAREMLGYYKEAIDDFKYALVLEPTNKRAASSAERLRKLFQ [R550A], the “effect of a mutation on the interaction” value was “decreasing interaction”.
